# Measured values published in the supplement of paper PMC10567573.
# B1: MAGEA6 (parent)
# chain: KISGGPRISYPLLHEWALREGEE
# B2: ZNF8 (parent)
# chain: VHVIGVEEPSVGASMLFDIREST
# Variants of: B1
# Experiment: protein stability index of a GFP-peptide fusion (GPS, HEK-293T) (PSI 1-6); higher = more stable
# Conditions: c terminus: native
# 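Note: lentivirally expressed fusions sorted by FACS into six bins by GFP to DsRed ratio, PSI derived from sequencing read proportions per bin multiplied by bin number.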
row,Variant,protein stability index
1,KISGGPRISYPLLHEWALREDEE,4.14
2,KISGKPRISYPLLHEWALREGEE,2.48
3,KISGHPRISYPLLHEWALREGEE,1.73
4,KISGGPRISYPLLHEWALREGEY,2.56
5,KISGGPRISYPALHEWALREGEE,4.05
6,KISGGPRISYPLLHEWALREGHE,2.49
7,KISGGPPISYPLLHEWALREGEE,2.65
8,KISGGPRISYPLNHEWALREGEE,2.95
9,KWSGGPRISYPLLHEWALREGEE,2.41
10,KISGGPRISYPLLHEWALREGQE,3.01
11,KISGGPRISYPLLHEWALREGLE,2.44
12,KPSGGPRISYPLLHEWALREGEE,3.29
13,KISGGPRISYLLLHEWALREGEE,2.3
14,KCSGGPRISYPLLHEWALREGEE,2.55
15,KISGGPRISYPLLHEWALREGFE,2.75
16,KISGGPRISYPLLHEWALRPGEE,2.36
17,KISGGPIISYPLLHEWALREGEE,4.03
18,KISGGPRISYPLLHEWALREGRE,3.04
19,KISGGPRISYPLLHEWALREGIE,2.37
20,KISIGPRISYPLLHEWALREGEE,3.06
21,KISGGPRISYPLLHEWPLREGEE,1.02
22,KISGGPRISYPLMHEWALREGEE,1.77
23,KISGGPRISYPLLHEWALRSGEE,4.57

row,Variant,protein stability index
1,KISGGPRISYELLHEWALREGEE,3.27
2,KISGGNRISYPLLHEWALREGEE,3.51
3,KISGGPRISYPLLHEFALREGEE,2.74
4,KISGGPRISYPLLHEWAKREGEE,2.72
5,KISGGPRISYPLLHEWALREGEI,1.74
6,KISGTPRISYPLLHEWALREGEE,3.04
7,KISGGPRISYPFLHEWALREGEE,3.78
8,KISGGPRISYPLLHEHALREGEE,2.26
9,KISGGPRISYPLLPEWALREGEE,3.11
10,KISGGPRISYPHLHEWALREGEE,2.3
11,KISGGPRISYPLLHEWDLREGEE,1.28
12,KISGGPRISYPLLHEWANREGEE,2.16
13,KITGGPRISYPLLHEWALREGEE,1.81
14,KISGGPRGSYPLLHEWALREGEE,3.28
15,KISGGPRISYPLLHEWALREGEQ,2.48
16,KISGGRRISYPLLHEWALREGEE,3.64
17,QISGGPRISYPLLHEWALREGEE,2.35
18,KISGGPRISYPLLHEWALAEGEE,2.07
19,KISGGARISYPLLHEWALREGEE,2.25
20,KISGGPRISYSLLHEWALREGEE,2.66
21,KISGGPRYSYPLLHEWALREGEE,2.6
22,KISGGPRISYPLLHEWALREGET,2.25
23,KISGGPRISYPLLHEWALREGPE,1.85

row,Variant,protein stability index
1,KISGGPRISYPLLHEWALKEGEE,2.08
2,KISSGPRISYPLLHEWALREGEE,5.95
3,KISGGPRISYPLLHELALREGEE,4.59
4,KISGGPRISYPLLHEWALREGEC,1.64
5,KISGGPRISYPLYHEWALREGEE,1.19
6,KISGGPRISYPLLHEWALREGEL,2.27
7,KISGGSRISYPLLHEWALREGEE,2.73
8,KISGGPRISYPLLHEWNLREGEE,3.69
9,KISGGPRPSYPLLHEWALREGEE,2.24
10,KISGGPRISYPLLHEWALREGNE,2.53
11,KISGGPRISYPLLHEWALREGVE,1.06
12,WISGGPRISYPLLHEWALREGEE,2.14
13,KISGGPRISYPLLHEWALREGTE,2.36
14,KISGGPRISQPLLHEWALREGEE,3.78
15,KISGGPRISYPLLHEWALPEGEE,2.18
16,KISGGPRISYVLLHEWALREGEE,2.1
17,KISGGPRISYPLLHEWALHEGEE,3.42
18,KISGGPRISYPLLHEWALFEGEE,2.64
19,KISGGPRISYPLLHEWALREGCE,1.88
20,KISGGPRISHPLLHEWALREGEE,2.83
21,KISGGPRISYPLLHEWALRECEE,3.26
22,KISGGPRISYPLLHEWALREGYE,2.29
23,KISGGPRCSYPLLHEWALREGEE,2.79

row,Variant,protein stability index
1,KISGGPRISYPLLHEWALTEGEE,3.74
2,KISGGPRISYPLLHEWAIREGEE,2.98
3,KISGGPRILYPLLHEWALREGEE,3.34
4,KISGGPRISYPLLHEWALREGDE,3.35
5,KISGGPRISYPLLHEWALREGSE,2.12
6,KISGGPRISYPLLHEWALRTGEE,2.92
7,KISGGPRISYPLLHEPALREGEE,2.49
8,KISGGPRISYPLLHENALREGEE,2.54
9,KISGGPRISYPLLHEWELREGEE,3.55
10,KISGGGRISYPLLHEWALREGEE,1.91
11,KISGGKRISYPLLHEWALREGEE,1.55
12,KISGGPRISLPLLHEWALREGEE,3.04
13,KISGGPRISYPLLHEWALREGEF,2.43
14,KISGGPRISYPLLHEWALREGEN,2.73
15,KISGGPRISYPLLHEWALREGME,2.19
16,KISGGPRISYQLLHEWALREGEE,2.63
17,FISGGPRISYPLLHEWALREGEE,1.67
18,KISGGPRISYPLLHEWALDEGEE,2.96
19,KISGGPRQSYPLLHEWALREGEE,2.06
20,KISPGPRISYPLLHEWALREGEE,5.66
21,KISGGPRISYPLLHEWALRKGEE,3.74
22,KISGGPRISYPLLHEWALREGEG,2.41
23,KISGCPRISYPLLHEWALREGEE,3.47

# Variants of: B2
# Experiment: as above
# Conditions: c terminus: native
row,Variant,protein stability index
1,AHVIGVEEPSVGASMLFDIREST,3.67
2,CHVIGVEEPSVGASMLFDIREST,1.93
3,DHVIGVEEPSVGASMLFDIREST,3.96
4,EHVIGVEEPSVGASMLFDIREST,4.18
5,FHVIGVEEPSVGASMLFDIREST,1.82
